Laboratory results taken from the supplement of paper PMC9170038.

Key:
MS2 coat protein [1] = assay: apparent KD of MS2 coat protein, switch OFF state (with FMN for OFF switches, without FMN for ON switches); designed switch direction (-1 OFF switch, 1 ON switch): -1; higher = weaker reporter binding; settings: FMN input: 0 or 200 uM; Eterna round: R93 (includes R88 designs)
In short: (§1)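 SNAP-549-labelled MS2 coat protein was titrated onto designed RNA switches that had been transcribed on-chip from Illumina sequencing clusters. Amounts doubled from 0.7 or 1.5 nM to 3 µM in 100 mM Tris-HCl pH 7.5, 80 mM KCl, 4 mM MgCl2, with constant ligand or without. Apparent KD is the median per design of normalised cluster binding-curve fits.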

MS2 coat protein [2] = assay: apparent KD of MS2 coat protein, switch ON state; designed switch direction (-1 OFF switch, 1 ON switch): -1; higher = weaker reporter binding; settings: FMN input: 0 or 200 uM; Eterna round: R93 (includes R88 designs)
In short: as §1

| Sequence | apparent KD of MS2 coat protein (MS2 coat protein [1]) [nM] | apparent KD of MS2 coat protein (MS2 coat protein [2]) [nM] |
| --- | --- | --- |
| GGUUGUGAAGGAUAUACAUGAGGAUCACCCAUGUGAGAGAAAAAAGUGAGAAAGAAAAGUAGAAGGUCAUGACG [salish99-ex3-64] | 76.2 | 30.8 |
| AAAAGGUGAGGAUAUACGAAAAAAAAAAAAAAAAAAAAAAAGUAGAAGGCACAUGAGGAUCACCCAUGUAAAAA [LROPPY Exclusion 4 - v01_deltaG=2.54] | 41.3 | 31.3 |
| AUCUUGUGAGGAUAUGCAUGAAAUGAAGUGAAAGAAAAGAAGCAGAAGGCACAUGAGGAUCACCCAUGUUAGAA [EteRNA is fun!] | 62.2 | 33.5 |
| AAAUGACUAGGAUAUACAUGAGGAUCACCCAUGUGUUAAAAUAAAUACACAAAAGAAAGUAGAAGGAGUCAAAA [Ex 3 May 15] | 59.7 | 22.3 |
| AAAACACAUGAGGAUCACCCAUGUGAGGAUAUGCUAUGGAAAUAAAAAAUAAAACAUAGCAGAAGGCGCAGGAA [Mat - Exclusion 1 - Eli mod - D47] | 29.1 | 25.2 |
| AACAGUACAGGAUAUACAUGAGGAUCACCCAUGUAGGGAUAAAGUGGCGUACCACAAAGUAGAAGGGUACUGGA [Moding Maslow revisited (73) 4] | 142 | 30.6 |
| AACAUGUAAGGAUAUAGAAGAAAAGAAAAGAAAGAAAAGAACUAGAAGGUACAUGAGGAUCACCCAUGUAAGAA [EteRNA is fun!] | 16.2 | 33.1 |
| AAGACUACAGGAUAUACAUGAGGAUCACCCAUGUAACUGACAAGUAGAGGACGGAGAAGUAGAAGGGUAGUCAA [Ruby 35] | 26.7 | 13.6 |
| AACAAACAUGAGGAUCACCCAUGUCAGGAUAUGCAAACAACAAACAACAAACAACAAAGCAGAAGGGACGACAA [63%, Olong, 3] | 37.5 | 21.7 |
| AGGAAACAUGAGGAUCACCCAUGUCAGGAUAUAGGAAAGAAAAGAAAAGAAAGAAGAAUUAGAAGGGACAAGAA [King Scorpion] | 16.5 | 23.5 |
| AAAAAGUUAGGAUAUACAUGAGGAUCACCCAUGUACAUAAAUGGAGAAAAAAACAGUAGUAGAAGGGACAAAAA [EX2 Malc#11] | 22.2 | 23.8 |
| AAGGGACAUGAGGAUCACCCAUGUGAGGAUAUGAUGCGAAUAAAGAAAGAAGAAAGCAUCAGAAGGCACACCAA [58%, Disencluded 3, 7] | 146 | 67.8 |
| AAAAAACAUGAGGAUCACCCAUGUGAGGAUAUCGCUAGUCAGUCCCUAGAGUGAGUGAUGAGAAGGCACAUAAA [Brourd 613 Mod 7 - Jieux - Exclusion 1] | 49.6 | 40.9 |
| AGCUAGCGAGGAUAUACGAACAUGUCAAAAGACGUGAAGGGACAUGAGGAUCACCCAUGUAGAAGGUGCUAGCA [JL 74% mod 7] | 70.3 | 31.8 |
| AACAGUACAGGAUAUACAUGAGGAUCACCCAUGUGAAAAUUAAGUGGCGUACCACAAUGUAGAAGGGUACUGGA [Moding Maslow Revisited (73) 24] | 83.7 | 110 |
| AGUCAGAGAGGAUAUACAUGAAAAAAAAAAGUUAGAUCCCUACAUGAGGAUCACCCAUGUAGAAGGCUCUGACA [Ex2 Design 151: Sub-opt 15] | 27 | 57.8 |
| CUCAUGUGAGGAUAUCAGUAGUAAAAAAAUAAAAUUACUACUGAGAAGGCACAUGAGGAUCACCCAUGUGCCAA [EX4 337: Super Stable 37] | 27.6 | 21.3 |
| AAAACGUCAGGAUAUACAGAAGAGAUCACAAAAAAAAAAAAACAUGAGGAUCACCCAUGUAGAAGGGACAAAAA [Ex2 Malc#2] | 115 | 111 |
